Source: the RNAGym collection of RNA variant scans (doi:10.1073/pnas.2313332121)
This sample holds only a part of the variants without activity.

B1: TPR 5TU (parent)
chain: GGAUCUUCUCGAUCUAACAAAAAAGACAAAUCUGCCACAAAGCUUGAGAGCAUCUUCGGAUGCAGAGGCGGCAGCCUUCGGUGGCGCGAUAGCGCCAACGUUCUCAACUAUGACACGCAAAACGCGUGCUCCGUUGAAUGGAGUUUAUCAUG

Variants of: B1
Test: polymerase ribozyme fitness, log enrichment relative to wild type (log ratio); higher = more active; in vitro selection for triplet polymerase activity
Outline: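 Mutant libraries of each subunit of a heterodimeric triplet polymerase ribozyme were built by PCR and transcribed. Each library went through one round of in vitro selection in triplicate: annealing with biotinylated primer, partner subunit and triplets, frozen incubation at −7 °C, gel excision of extended constructs, streptavidin-bead capture and RT-PCR. Input and output libraries were Illumina-sequenced; only genotypes with ≥10 input reads and ≥1 read per output were kept. Fitness is log2(genotype enrichment/wild-type enrichment), using inverse-variance-weighted replicate averages.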

Q: For GGAUCUUCUCGAUCUAACAAAAAAGACAAAUCUGCCACAAAGCUUGAGAGCAUCUUCGGAUGCAGAGGCGGCAGCCUUCGGUGGCGCGAUAGCGCGAACGUUCUCAACUAUGACGCGCAAAAAGCGUGCUCCGUUGAAUGGAGUUUUUCAUG [C96G A115G C123A A147U], which “polymerase ribozyme fitness (log ratio)” value is on record?
A: -0.404

Q: Which “polymerase ribozyme fitness (log ratio)” value does the source give for GGAUCUUCUCGAUCUAACAAAAAAGACAAAUCUGCCACAAAGCUUGAGAGCAUCUUCGGAUGCAGAGGCGGCAGCCUUCGGUGGCGCGAUAGCGCAAACGUUCUCAACUAUGACACGCAAAACGCGUGCUCCGUUGAAUUGAGUUUAUCAUG [C96A G140U] here?
A: -3.47

Q: With GGAUCUUCUCGAUCUAACAAAAAAGACAAAUCUGCCACAAAGCUUGAGAGCAUCUUCGGAUGCAGAGGCGGCAGCCUUCGGUGGCGCGAUAGCGCUAACGUUCUCAACUAUGACACGCAAUACGCGUGCUCCGUUGAAAGGAGUUUAUCAUG [C96U A121U U139A] as the variant, how does the “polymerase ribozyme fitness (log ratio)” value read?
A: ≤ -4.2

Q: With GGAUCUUCUCGAUCUAACAAAAAAGACAAAUCUGCCACAAAGCUUGAGAGCAUCUUCGGAUGCAGAGGCGGCAGCCUUCGGUGGCGCGAUAGCGCGAACGUUCUCAACUAUAACACGCAAAACGCGUGCUCCGUUGAAUGGAGUUUAUCAUG [C96G G112A] as the variant, how does the “polymerase ribozyme fitness (log ratio)” value read?
A: -4.07

Q: With GGAUCUUCUCGAUCUAACAAAAAAGACAAAUCUGCCACAAAGCUUGAGAGCAUCUUCGGAUGCAGAGGCGGCAGCCUUCGGUGGCGCGAUAGCGCGAACGUUCUCAACUAUGACACGCAGAACGCGUGCUCCGUUGAAUGGAGUUUAUCAUG [C96G A120G] as the variant, how does the “polymerase ribozyme fitness (log ratio)” value read?
A: -2

Q: For GGAUCUUCUCGAUCUAACAAAAAAGACAAAUCUGCCACAAAGCUUGAGAGCAUCUUCGGAUGCAGAGGCGGCAGCCUUCGGUGGCGCGAUAGCGCGAACGUUCUCAACUAUGACACGCACAACGCGUGCUCCGUUGAAUGGAGUUUAUCAUG [C96G A120C], which “polymerase ribozyme fitness (log ratio)” value is on record?
A: 0.168

Q: With GGAUCUUCUCGAUCUAACAAAAAAGACAAAUCUGCCACAAAGCUUGAGAGCAUCUUCGGAUGCAGAGGCGGCAGCCUUCGGUGGCGCGAUAGCGCGAACGUUCUCAACUAUGACACGCAAAACGCGUGCCCCGUUGAAUGGAGUUUAUCAUG [C96G U130C] as the variant, how does the “polymerase ribozyme fitness (log ratio)” value read?
A: 0.873

Q: For GGAUCUUCUCGAUCUAACAAAAAAGACAAAUCUGCCACAAAGCUUGAGAGCAUCUUCGGAUGCAGAGGCGGCAGCCUUCGGUGGCGCGAUAGCGCGAACGUUCUCAACUAUGAUACGCAAAACGCGUGCUCCGUUGAAUGGAGUUUAUCAUG [C96G C114U], which “polymerase ribozyme fitness (log ratio)” value is on record?
A: -2.18

Q: For GGAUCUUCUCGAUCUAACAAAAAAGACAAAUCUGCCACAAAGCUUGAGAGCAUCUUCGGAUGCAGAGGCGGCAGCCUUCGGUGGCGCGAUAGCGCGAACGUUCUCAACUAUGAAACGCAAAACGCGUGCUCCGUUGAAUGGAGUUUAUCAUG [C96G C114A], which “polymerase ribozyme fitness (log ratio)” value is on record?
A: -4.19

Q: With GGAUCUUCUCGAUCUAACAAAAAAGACAAAUCUGCCACAAAGCUUGAGAGCAUCUUCGGAUGCAGAGGCGGCAGCCUUCGGUGGCGCGAUAGCGCGAACGUUCUCAACUAUGACACGCAAAACGCGUGCUCCGUUGAAGUGAGUUUAUAAUG [C96G U139G G140U C149A] as the variant, how does the “polymerase ribozyme fitness (log ratio)” value read?
A: ≤ -4.2

Q: For GGAUCUUCUCGAUCUAACAAAAAAGACAAAUCUGCCACAAAGCUUGAGAGCAUCUUCGGAUGCAGAGGCGGCAGCCUUCGGUGGCGCGAUAGCGCAAACGUUCUCAACUAUGACACGCAAAACGCGUGCUCCGUUGAAUGGAGUUUAUCCUG [C96A A150C], which “polymerase ribozyme fitness (log ratio)” value is on record?
A: -3.12

Q: Which “polymerase ribozyme fitness (log ratio)” value does the source give for GGAUCUUCUCGAUCUAACAAAAAAGACAAAUCUGCCACAAAGCUUGAGAGCAUCUUCGGAUGCAGAGGCGGCAGCCUUCGGUGGCGCGAUAGCGCGAACGUUCUCAACUAUGACACGCAAAACGCGUGCUCCGUUGAAUGAAGUUUAUCAUG [C96G G141A] here?
A: -0.288

Q: Which “polymerase ribozyme fitness (log ratio)” value does the source give for GGAUCUUCUCGAUCUAACAAAAAAGACAAAUCUGCCACAAAGCUUGAGAGCAUCUUCGGAUGCAGAGGCGGCAGCCUUCGGUGGCGCGAUAGCGCGAUCGUUCUCAACUAUGACACGCAAAACGCGUGCUCCGUUGAAUGGAGUUUAUCAUG [C96G A98U] here?
A: -0.873

Q: With GGAUCUUCUCGAUCUAACAAAAAAGACAAAUCUGCCACAAAGCUUGAGAGCAUCUUCGGAUGCAGAGGCGGCAGCCUUCGGUGGCGCGAUAGCGCGAACGUUCUCAACUAUGACAGGCAAAACGCGUGCUCCGUUGAAUGGAGUUUAUCAUG [C96G C116G] as the variant, how does the “polymerase ribozyme fitness (log ratio)” value read?
A: 0.127

Q: For GGAUCUUCUCGAUCUAACAAAAAAGACAAAUCUGCCACAAAGCUUGAGAGCAUCUUCGGAUGCAGAGGCGGCAGCCUUCGGUGGCGCGAUAGCGCUAGCGUUCUCAACUAUGACACGCAAAACGCGUGCUCCGUUGAAUGGAGUUUAUCAUG [C96U A98G], which “polymerase ribozyme fitness (log ratio)” value is on record?
A: -1.3

Q: For GGAUCUUCUCGAUCUAACAAAAAAGACAAAUCUGCCACAAAGCUUGAGAGCAUCUUCGGAUGCAGAGGCGGCAGCCUUCGGUGGCGCGAUAGCGCGAACGUUCUCAACUAUGACACGCAAAACGCGUGCUCCGUUGAAUGGGGUGUUUCAUG [C96G A142G U145G A147U], which “polymerase ribozyme fitness (log ratio)” value is on record?
A: -2.85

Q: Which “polymerase ribozyme fitness (log ratio)” value does the source give for GGAUCUUCUCGAUCUAACAAAAAAGACAAAUCUGCCACAAAGCUUGAGAGCAUCUUCGGAUGCAGAGGCGGCAGCCUUCGGUGGCGCGAUAGCGCUAACGUUCUCAACUAUGACCCGCAAAACGCGUGCUCCGUUGAAUGGAGUUUAUCAUG [C96U A115C] here?
A: -2.68

Q: Which “polymerase ribozyme fitness (log ratio)” value does the source give for GGAUCUUCUCGAUCUAACAAAAAAGACAAAUCUGCCACAAAGCUUGAGAGCAUCUUCGGAUGCAGAGGCGGCAGCCUUCGGUGGCGCGAUAGCGCGAACGUUCUCAACUAUGACACGCAAAACGCGUGCUCCGUUGAAUGGAGUUCAUCAUG [C96G U146C] here?
A: -1.45

Q: Which “polymerase ribozyme fitness (log ratio)” value does the source give for GGAUCUUCUCGAUCUAACAAAAAAGACAAAUCUGCCACAAAGCUUGAGAGCAUCUUCGGAUGCAGAGGCGGCAGCCUUCGGUGGCGCGAUAGCGCGAACGUACUCAACCAUGACACGCAAAACGCGUGCUCCGUUGAAUGGAGUUUAUCAUG [C96G U102A U109C] here?
A: ≤ -4.2
